Consider nine molecules from US20140271457A1 (AbbVie / Abbott, published 2014).

Positions count from the first letter of the chain named.

The target of the test is Recombinant Human IL-13 (human, UniProt P35225 35-146, limits assumed). The test can be described thus: cell-based or functional assay.
Sequence of Recombinant Human IL-13 (P35225 35-146 limits assumed): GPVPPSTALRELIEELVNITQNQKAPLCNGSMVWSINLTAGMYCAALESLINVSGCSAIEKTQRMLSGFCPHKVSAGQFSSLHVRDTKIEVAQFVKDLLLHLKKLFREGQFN

B1: DVD3017 (bispecific antibody, human IgG1, kappa)
heavy: not shown
light: DIQMTQSPSSLSASVGDRVTISCRASQDIRNYLNWYQQKPGKAPKLLIFYTSKLHSGVPSRFSGSGSGTDYTLTISSLQPEDIATYYCQQGLTPPLTFGGGTKVEIKRTVAAPDIQMTQSPSSLSASVGDRVTITCRASQDIENYLNWYQQKPGKAPKLLIYYTSRLQSGVPSRFSGSGSGTDFTLTISSLQPEDFATYFCQQGNTQPPTFGQGTKLEIKRTVAAPSVFIFPPSDEQLKSGTASVVCLLNNFYPREAKVQWKVDNALQSGNSQESVTEQDSKDSTYSLSSTLTLSKADYEKHKVYACEVTHQGLSSPVTKSFNRGEC
Regarding B1, the “IL-13 Neutralization Assay IC50” value turned out to be 0.111 nM.

B2: DVD3083 (bispecific antibody, human IgG1, kappa)
heavy: not shown
light: DIQMTQSPSSLSASVGDRVTITCRASQLVSSAVAWYQQKPGKAPKLLIYWASARHTGVPSRFSGSGSGTDFTLTISSLQPEDFATYYCQQHYKTPFTFGQGTKLEIKRGGSGGGGSGDVVMTQSPLSLPVTLGQPASISCRSSQSLVHSHGNTYLHWYQQRPGQSPRLLIYTVSNRFSGVPDRFSGSGSGTDFTLKISRVEAEDVGVYYCSQSTHVPYTFGGGTKVEIKRTVAAPSVFIFPPSDEQLKSGTASVVCLLNNFYPREAKVQWKVDNALQSGNSQESVTEQDSKDSTYSLSSTLTLSKADYEKHKVYACEVTHQGLSSPVTKSFNRGEC
Consider B2, for which the “IL-13 Neutralization Assay IC50” value was found to be 0.098 nM.

B3: DVD3093 (bispecific antibody)
heavy: not shown
light: B2 light with R24K, A53T, R54L, K93R
Take B3: the “IL-13 Neutralization Assay IC50” value was 0.067 nM.

B4: DVD3086 (bispecific antibody, human IgG1, kappa)
heavy: not shown
light: DIQMTQSPSSLSASVGDRVTITCRASQLVSSAVAWYQQKPGKAPKLLIYWASARHTGVPSRFSGSGSGTDFTLTISSLQPEDFATYYCQQHYKTPFTFGQGTKLEIKRTVAAPSVFIFPPDVVMTQSPLSLPVTLGQPASISCRSSQSLVHSHGNTYLHWYQQRPGQSPRLLIYTVSNRFSGVPDRFSGSGSGTDFTLKISRVEAEDVGVYYCSQSTHVPYTFGGGTKVEIKRTVAAPSVFIFPPSDEQLKSGTASVVCLLNNFYPREAKVQWKVDNALQSGNSQESVTEQDSKDSTYSLSSTLTLSKADYEKHKVYACEVTHQGLSSPVTKSFNRGEC
B4: the “IL-13 Neutralization Assay IC50” value stood at 0.12 nM.

B5: DVD3096 (bispecific antibody)
heavy: not shown
light: B4 light with R24K, A53T, R54L, K93R
Regarding B5, the “IL-13 Neutralization Assay IC50” value is 0.064 nM.

B6: DVD3084 (bispecific antibody, human IgG1, kappa)
heavy: not shown
light: DIQMTQSPSSLSASVGDRVTITCRASQLVSSAVAWYQQKPGKAPKLLIYWASARHTGVPSRFSGSGSGTDFTLTISSLQPEDFATYYCQQHYKTPFTFGQGTKLEIKRTVAAPDVVMTQSPLSLPVTLGQPASISCRSSQSLVHSHGNTYLHWYQQRPGQSPRLLIYTVSNRFSGVPDRFSGSGSGTDFTLKISRVEAEDVGVYYCSQSTHVPYTFGGGTKVEIKRTVAAPSVFIFPPSDEQLKSGTASVVCLLNNFYPREAKVQWKVDNALQSGNSQESVTEQDSKDSTYSLSSTLTLSKADYEKHKVYACEVTHQGLSSPVTKSFNRGEC
With B6, the “IL-13 Neutralization Assay IC50” value came to 0.587 nM.

B7: DVD3087 (bispecific antibody, human IgG1, kappa)
heavy: not shown
light: B6 light
Turning to B7, the “IL-13 Neutralization Assay IC50” value worked out at 0.082 nM.

B8: DVD3097 (bispecific antibody)
heavy: not shown
light: B6 light with R24K, A53T, R54L, K93R
As to B8, the “IL-13 Neutralization Assay IC50” value stood at 0.072 nM.

B9: DVD3094 (bispecific antibody)
heavy: not shown
light: B6 light with R24K, A53T, R54L, K93R
With B9, the “IL-13 Neutralization Assay IC50” value was 0.444 nM.
